The values that follow come from PMC11931385, “Structural and functional analysis of cancer-associated missense variants in the retinoblastoma protein pocket domain” (The Journal of Biological Chemistry, 2025).

Holding throughout (assay): fluorescence polarisation; 25 °C; unlabeled Rb^P titrated against 1.5 nM TMR-E2F1^TD or 7.5 nM TMR-E7^LxCxE; 25 mM Tris pH 8.0, 200 mM NaCl, 1 mM DTT, 0.1% Tween-20; 2 min incubation; quadratic fit; apparent Kd for the variants, Kd for WT
Common to all, as to conditions: both partners purified
(In general: In fluorescence polarisation assays a small probe gives low polarisation when free and higher when bound to something large.)

Test [1] deals with T1, Rb^P P595L (human, UniProt P06400 380-788, P595L).
T1 construct: also called variant 35
T1 sequence (looked up): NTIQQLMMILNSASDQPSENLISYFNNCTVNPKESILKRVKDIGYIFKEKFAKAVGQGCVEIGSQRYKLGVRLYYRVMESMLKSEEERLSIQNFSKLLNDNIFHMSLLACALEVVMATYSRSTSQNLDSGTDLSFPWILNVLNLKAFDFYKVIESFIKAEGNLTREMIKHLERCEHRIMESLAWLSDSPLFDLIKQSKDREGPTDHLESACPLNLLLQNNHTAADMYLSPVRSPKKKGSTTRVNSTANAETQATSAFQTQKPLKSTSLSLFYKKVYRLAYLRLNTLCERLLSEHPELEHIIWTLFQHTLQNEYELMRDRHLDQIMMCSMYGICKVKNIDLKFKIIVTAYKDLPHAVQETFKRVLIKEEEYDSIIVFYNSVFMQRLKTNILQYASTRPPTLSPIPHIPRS

The target of test [2] is T2, Rb^P A488V (human, UniProt P06400 380-788, A488V).
T2 construct: also called variant 14
T2 sequence (looked up): T1 sequence (looked up) with A109V, L216P

Test [3] has as its target T3, Rb^P H585Y (human, UniProt P06400 380-788, H585Y).
T3 construct: also called variant 33
T3 sequence (looked up): T1 sequence (looked up) with H206Y, L216P

The target of test [4] is T4, Rb^P T687I (human, UniProt P06400 380-788, T687I).
T4 construct: also called variant 59
T4 sequence (looked up): T1 sequence (looked up) with L216P, T308I

Test [5] addresses T5, Rb^P S751C (human, UniProt P06400 380-788, S751C).
T5 construct: also called variant 71
T5 sequence (looked up): T1 sequence (looked up) with L216P, S372C

Changes are numbered by the printed parent chain. In names and notes the source's numbering stands. No end group written: not given here. TMR = tetramethyl rhodamine dye

B1: TMR-E2F1^TD, peptide of the E2F1 transactivation domain (peptide)
peptide: {TMR}-GEGIRDLFDCDFGDLTPLD
notes: also called E2F^TD; source: synthetic peptide, bought: GenScript
On to B1, for which the Kd stood at 46 nM in test [1]; 53 nM in test [2]; 35 nM in test [3]; 20 nM in test [4]; 66 nM in test [5].

B2: TMR-E7^LxCxE, LxCxE peptide of the E7 oncoprotein from HPV (peptide)
peptide: DLYCYEQLN
modifications: also: TMR label, position not given here
notes: source: synthetic peptide, bought: GenScript
In the case of B2, the Kd in test [1] was found to be 14 nM; in test [2], 9 nM; in test [3], 6 nM; in test [4], 13 nM; in test [5] it was 44 nM.
